Changes are numbered by the printed parent chain. Numbers in names are those of the source.
B1: human ADPRibase-Mn (Homo sapiens; C253V) (protein)
chain: MDDKPNPEALSDSSERLFSFGVIADVQFADLEDGFNFQGTRRRYYRHSLLHLQGAIEDWNNESSMPCCVLQLGDIIDGYNAQYNASKKSLELVMDMFKRLKVPVHHTWGNHEFYNFSREYLTHSKLNTKFLEDQIVHHPETMPSEDYYAYHFVPFPKFRFILLDAYDLSVLGVDQSSPKYEQCMKILREHNPNTELNSPQGLSEPQFVQFNGGFSQEQLNWLNEVLTFSDTNQEKVVIVSHLPIYPDASDNVVLAWNYRDALAVIWSHECVVCFFAGHTHDGGYSEDPFGVYHVNLEGVIETAPDSQAFGTVHVYPDKMMLKGRGRVPDRIMNYKKERAFHC
notes: human liver cDNA, pGEX-6P-3-hADPRM, E. coli BL21; GST tag removed with PreScission protease, N-terminal extension … kept
B2: human ADPRibase-Mn (Homo sapiens; C253G/F37A/L196F/V252A) (protein)
chain: B1 chain with F37A, L196F, V252A, V253G
notes: as for B1

Key:
Assay type in all cases: biochemical, Homo sapiens
Conditions in all cases: 50 mM Tris-HCl pH 7.5, 0.4 mM MnCl2, 0.1 mg/ml BSA, 37 °C
[1] = substrate: N=c1c2ncn3c2ncn1[C@@H]1O[C@H](COP(=O)(O)OP(=O)(O)OC[C@H]2O[C@@H]3[C@H](O)[C@@H]2O)[C@@H](O)[C@H]1O; test: HPLC assay of pRibAMP formation
From the text: HPLC assay of pRibAMP formation on human ADPRibase-Mn | displaying a decreased kcat for cADPR (Supplementary Table S1)

[2] = substrate: Nc1ncnc2c1ncn2[C@@H]1O[C@H](CO)[C@H]2OP(=O)(O)O[C@H]21; test: colorimetric phosphate assay coupled to alkaline phosphatase
[3] = substrate: C[N+](C)(C)CCOP(=O)(O)OP(=O)([O-])OC[C@H]1O[C@@H](n2ccc(N)nc2=O)[C@H](O)[C@@H]1O; test: as above
[4] = substrate: N=c1c2ncn3c2ncn1[C@@H]1O[C@H](COP(=O)(O)OP(=O)(O)OC[C@H]2O[C@@H]3[C@H](O)[C@@H]2O)[C@@H](O)[C@H]1O; test: HPLC assay of pRibAMP formation, initial rates, Michaelis-Menten fit
[5] = substrate: Nc1ncnc2c1ncn2[C@@H]1O[C@H](CO)[C@H]2OP(=O)(O)O[C@H]21; test: colorimetric phosphate assay coupled to alkaline phosphatase, Michaelis-Menten fit
[6] = substrate: C[N+](C)(C)CCOP(=O)(O)OP(=O)([O-])OC[C@H]1O[C@@H](n2ccc(N)nc2=O)[C@H](O)[C@@H]1O; test: as above

Protein	Km [1] [mM]	kcat [1] [s⁻¹]	Km [2]	kcat [2] [s⁻¹]	Km [3]	kcat [3] [s⁻¹]	Km [4] [mM]	kcat [4] [s⁻¹]	Km [5] [mM]	kcat [5] [s⁻¹]	Km [6] [mM]	kcat [6] [s⁻¹]
B1	0.56 ± 0.18	1.6 ± 0.1	2,380 ± 250 µM	148 ± 8	1,120 ± 115 µM	109 ± 9	–	–	–	–	–	–
B2	–	–	–	–	–	–	0.14	13	8.7	12	10.6	37

Reference: paper PMC5773619, “Specific cyclic ADP-ribose phosphohydrolase obtained by mutagenic engineering of Mn^2+-dependent ADP-ribose/CDP-alcohol diphosphatase” (Scientific Reports, 2018)
